The chains are these.
B1: H16 monoclonal antibody (antibody, V domains shown)
VH: QVQLLQSGAEVKKPGSSVKVSCKASGGTFSSYAISWVRQAPGQGLEWMGGIIPIFGTANYAQKFQGRVTITADESTSTAYMELSSLRSEDTAVYYCASSYYGSGTTWFDPWGQGTLVTVSS
VL: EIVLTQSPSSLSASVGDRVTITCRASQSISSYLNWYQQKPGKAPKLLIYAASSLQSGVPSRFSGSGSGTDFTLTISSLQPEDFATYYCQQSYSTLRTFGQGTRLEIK
notes: also called H16 mAb
B2: B08 monoclonal antibody (antibody, V domains shown)
VH: QVQLVQSGGGLVKPGGSLRLSCAASGFTFSSYSMNWVRQAPGKGLEWVSSISSSSSYIYYADSVKGRFTISRDNAKNSLYLQMNSLRAEDTAVYYCARDIALPYYGMDVWGQGTMVTVSS
VL: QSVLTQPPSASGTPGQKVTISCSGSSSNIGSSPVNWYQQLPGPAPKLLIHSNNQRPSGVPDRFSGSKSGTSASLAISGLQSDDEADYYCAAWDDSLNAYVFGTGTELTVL
notes: also called B08 mAb
B3: H09 monoclonal antibody (antibody, V domains shown)
VH: EVQLVQSGAEVKKPGASVKVSCKASGYTFTGYYMHWVRQAPGHGLEWMGWINPNSGGTNYAQKFQGRVTMTRDTSISTAYMELSGLRSDDTAVYYCARDKGAWSGSYPGYNWFDPWGQGTLVTVSS
VL: QAVVTQPPSASGTPGQRVTISCSGSSSTIGTNPVNWYRHLPGTAPKLLIYSNNQRPSGVPDRVSGSKSGTSASLAISGLQSEDEADYYCATLDDSLNGYVFGTGTKVTVL
notes: also called H09 mAb
B4: B09 monoclonal antibody (antibody, V domains shown)
VH: QVQLVQSGAEVKKPGSSVKVSCKTSGGTFSSYAISWVRQAPGQGLEWMGGIIPISGTANYAQKLQGRVTITADESTSTAYMELSSLRSEDTAVYYCGRGDYCNGGSCSYTNYYGMDVWGQGTMVTVSS
VL: QAVVTQPPSASGTPGQRSTISCSGGSANIGSNSVHWYQQFPGTAPKLLIFNNNQRPSGVPDRFSGSKSGTSASLAISGLQSEDEADYFCAAWDDSLKGPVFGGGTKVTVL
notes: also called B09 mAb
B5: B13 monoclonal antibody (antibody, V domains shown)
VH: B4 VH with Q1E, T24A, S35T, S55V, L64F, V68L, G97A, N103S, M123T
VL: not shown
notes: also called B13 mAb
B6: H12 monoclonal antibody (antibody, V domains shown)
VH: B4 VH with Q1E, A61P, V93M, G97A, M123T, T125I
VL: QSALTQPPSVSVAPGKTAMITCGGTNIRSQNVHWYQQKPGQAPVLVIYWDSSRPSGIPERISGSNSGSTATLTISRVEAGDEADYYCQVWDATRDHVVFGGGTKVTVL
notes: also called H12 mAb
B7: H14 monoclonal antibody (antibody, V domains shown)
VH: QVQLVQSGAEVKKPGSSVKVSCKASGGTFSSYAISWVRQAPGQGLEWMGGIIPIFGTANYAQKFQGRVTITADESTSTAYMELSSLRSEDTAVYYCAREATPFMILGAFDIWGQGTMVIVSS
VL: not shown
notes: also called H14 mAb
B8: H11 monoclonal antibody (antibody, V domains shown)
VH: EVQLVQSGPEVRKPGASVQISCKASGYTFTTSYIHWVRQAPGQGLEWLGLVNPNDGSTTYTQNFQGRVTMTSDTSTSTVYMELSRVTYADTAVYYCAKDIRDYVWGTYRYESAFDIWGQGTTVTVSS
VL: QAVVTQPPSVSVSPGQTASITCSGDKLGDKYVSWYQQKPGQPPILVMYQDNRRPSGIPERFSGSNSGNTATLTISGTQAMDEADYYCQTWDSSTASYVFGTGTKVTVL
notes: also called H11 mAb
B9: B01 monoclonal antibody (antibody, V domains shown)
VH: QVQLVQSGAEVKKPGASVKVSCKASGYSFTSYFIHWVRQAPGQGLEWMGIINPAGGNTNYAQRFQGRVTMTRDTSTSTVYMELSSLRSDDTAVYYCARDKDYGEGAFDLWGQGTMVSVSS
VL: QSALTQPPSVSGAPGQRVTISCTGSSSNIGAGYDVHWYQQLPGTAPKLLIYGNSNRPSGVPDRFSGSKSGTSASLAITGLQAEDEADYYCQSYDSSLSGWVFGGGTKVTVL
notes: also called B01 mAb
B10: H10 monoclonal antibody (antibody, V domains shown)
VH: QVQLVQSGAEVKKPGASVKVSCKASGYTFTSYYMHWVRQAPGQGLEWMGIINPSGGSTSYAQKFQGRVTMTRDTSTSTVYMELSSLRSEDTAVYYCARGTTYDAFDIWGQGTTVSVSS
VL: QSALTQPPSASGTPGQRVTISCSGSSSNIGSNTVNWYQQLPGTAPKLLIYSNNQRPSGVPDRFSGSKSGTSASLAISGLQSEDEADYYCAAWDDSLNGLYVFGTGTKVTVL
notes: also called H10 mAb
B11: B02 monoclonal antibody (antibody, V domains shown)
VH: QVELQESGSGLVKPSQTLSLTCAVSGGSISSGGYSWSWIRQPPGKGLEWIGYIYHSGSTYYNPSLKSRVTISVDRSKNQFSLKLSSVTAADTAVYYCARELGYCSSTSCPWGAFDIWGQGTLVSVSS
VL: QAVVTQPPSVSAAPGQKVTISCSGSSSNIGNNYVSWYQQLPGTAPKLLIYDNNKRPSGIPDRFSGSKSGTSATLGITGLQTGDEADYYCGTWDSSLSAVVFGGGTQLTVL
notes: also called B02 mAb
B12: B04 monoclonal antibody (antibody, V domains shown)
VH: EVQLVQSGGGVVQPGRSLRLSCAASGFTFSSYAMHWVRQAPGKGLEWVAVISYDGSNKYYADSVKGRFTISRDNSKNTLYLQMNSLRAEDTAVYYCARESGVSGDYYYYGMDVWGQGTMVTVSS
VL: AIQLTQSPSSLSASVGDRVTITCQASQDIKNYLNWYQQRPGKAPKLLIYDASNLETGVPSRFSGGGSGTDFTFTISSLQPEDIATYYCQHYDSLPITFGQGTRLEIK
notes: also called B04 mAb
B13: B19 monoclonal antibody (antibody, V domains shown)
VH: QVELVESGGGLVQPGRSLRLSCAASGFTFDDYAMHWVRQAPGKGLEWVSGISWNSGSIGYADSVKGRFTISRDNAKNSLYLQMNSLRAEDTALYYCAKDIGVYYYGMDVWGQGTTVSVSS
VL: QSALTQPPSASGTPGQKVTISCSGSSSNIGSSPVNWYQQFPGPAPKLLIHSNNQRPSGVPDRFSGSKSGTSASLAISGLQSDDEADYYCAAWDDSLNAYVFGTGTKVTVL
notes: also called B19 mAb
B14: B17 monoclonal antibody (antibody, V domains shown)
VH: QVELQESGPGLVQPSGTLSLTCAVSGGSMGSSNWWSWVRQPPGKGLEWIGEVYHTGSTNYNPSLRSRVTISVDKSKKQFSLELTSVTAADTAVYFCARDLTVTGSFDIWGQGTMVTVSS
VL: QAVVTQPRSVSGSPGQSVTISCTGSSSDVGAYNYVSWYQQHPGKAPKLIISDVSDWPSGVPDRFSGSKSGNTASLTISGLQADDEADYYCFSYAGNYNWVFGGGTKLTVL
notes: also called B17 mAb
B15: H13 monoclonal antibody (antibody, V domains shown)
VH: QVQLVQSGAEVKKPGASVKVSCKVSGYSFSSHGISWVRQAPGQGLEWMGWISAYNGNTNYAQNLQGRVRMTTDTSTNTAHMELRSLRSDDTAVYYCARDQDEANWNNNYYFDYWGQGTLVTVSS
VL: NFMLTQPHSVSESPGKTVTISCTGSSGSIASKYVQWYQQRPGSAPTSVIYEDNQRPSGVPDRFSGSIDRSSNSASLTISGLKTEDEADYHCQSYDSANRVVFGGGTKVTVL
notes: also called H13 mAb
B16: B06 monoclonal antibody (antibody, V domains shown)
VH: QVQLVESGGGLVQPGRSLRLSCAASGFTFDDYAMHWVRQAPGKGLEWVSGISWNSGSIGYADSVKGRFTISRDNAKNSLYLQMNSLRAEDTALYYCAKDITSSGWYWFDYWGQGTLVTVSS
VL: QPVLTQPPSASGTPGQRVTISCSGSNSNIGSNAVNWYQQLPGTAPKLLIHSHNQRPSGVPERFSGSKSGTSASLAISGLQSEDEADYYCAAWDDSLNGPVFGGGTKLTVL
notes: also called B06 mAb
B17: B12 monoclonal antibody (antibody, V domains shown)
VH: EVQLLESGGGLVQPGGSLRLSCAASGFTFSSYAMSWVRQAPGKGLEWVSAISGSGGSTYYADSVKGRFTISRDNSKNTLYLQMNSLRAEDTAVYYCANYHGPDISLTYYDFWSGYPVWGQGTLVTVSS
VL: QSALTQPHSVSESPGKTVTISCTRSSGSIANNHVQWYQQRPGSAPIIVIYEDNQRPSGVPDRFSGSIDSSSNSASLTLSGLKTEDEAAYYCQSYDDNNWVFGGGTKVTVL
notes: also called B12 mAb
B18: B10 monoclonal antibody (antibody, V domains shown)
VH: QVQLVQSGAEVKKPGASVKVSCKASGYTFTSYYMHWVRQAPGQGLEWMGIINPSGGSTSYAQKFQGRVTMTRDTSTSTVYMELSSLRSEDTAVYYCARDKAHDSSGYYDAFDIWGQGTTVTVSS
VL: QSALTQPPSASGTPGQRVTISCSGSGSNIGSNTVNWYQQLPGTAPRLLIYRNNQRPSGVPDRFSGSKSGTSASLAISGLESEDEADYFCATWDDSLNDYVFATGTQLTVL
notes: also called B010; B10 mAb
B19: B05 monoclonal antibody (antibody, V domains shown)
VH: QVQLVESGGGVVRPGGSLRLSCAASGFTFDDYGMSWVRQAPGKGLEWVSGINWNGGSTGYADSVKGRFTISRDNAKNSLYLQMNSLRAEDTALYHCARVNYDSSGLRGAFDIWGQGTTVTVSS
VL: AIQLTQSPSSLSASVGDRVTITCQASQDISNYLNWYQQKPGKAPKLLIYDASNLETGVPSRFSGSGSGTDFTFTISSLQPEDIATYYCQQYDNLPTFGQGTRLEIK
notes: also called B05 mAb
B20: B03 monoclonal antibody (antibody, V domains shown)
VH: B19 VH with T118M, T120I
VL: B12 VL with A1D, Q3V, L4M, K30S, R39K, G65S, H90Q, S93N
notes: also called B03 mAb
B21: B07 monoclonal antibody (antibody, V domains shown)
VH: B19 VH with T118M
VL: NIQMTQSPSSLSASVGDRVTITCQASQYISNSLNWYQQKPGKAPNLLLYDATNLEPGVPSRFSGSGSRTDFTLTISSLQPEDIATYYCQQYHNLPPTFGQGTRLEIK
notes: also called B07 mAb
B22: B16 monoclonal antibody (antibody, V domains shown)
VH: B19 VH with Q3E
VL: B19 VL with A1D, I2V, L4M
notes: also called B016; B16 mAb

Changes are numbered by the printed parent chain.

The target of the test is T1, recombinant OSMR protein (Sino Biologicals, 11226-H08H), extracellular domain of OSMR (UniProt Q99650 28-740).
T1 construct: extracellular domain; also called OSMR antigen
T1 sequence (looked up): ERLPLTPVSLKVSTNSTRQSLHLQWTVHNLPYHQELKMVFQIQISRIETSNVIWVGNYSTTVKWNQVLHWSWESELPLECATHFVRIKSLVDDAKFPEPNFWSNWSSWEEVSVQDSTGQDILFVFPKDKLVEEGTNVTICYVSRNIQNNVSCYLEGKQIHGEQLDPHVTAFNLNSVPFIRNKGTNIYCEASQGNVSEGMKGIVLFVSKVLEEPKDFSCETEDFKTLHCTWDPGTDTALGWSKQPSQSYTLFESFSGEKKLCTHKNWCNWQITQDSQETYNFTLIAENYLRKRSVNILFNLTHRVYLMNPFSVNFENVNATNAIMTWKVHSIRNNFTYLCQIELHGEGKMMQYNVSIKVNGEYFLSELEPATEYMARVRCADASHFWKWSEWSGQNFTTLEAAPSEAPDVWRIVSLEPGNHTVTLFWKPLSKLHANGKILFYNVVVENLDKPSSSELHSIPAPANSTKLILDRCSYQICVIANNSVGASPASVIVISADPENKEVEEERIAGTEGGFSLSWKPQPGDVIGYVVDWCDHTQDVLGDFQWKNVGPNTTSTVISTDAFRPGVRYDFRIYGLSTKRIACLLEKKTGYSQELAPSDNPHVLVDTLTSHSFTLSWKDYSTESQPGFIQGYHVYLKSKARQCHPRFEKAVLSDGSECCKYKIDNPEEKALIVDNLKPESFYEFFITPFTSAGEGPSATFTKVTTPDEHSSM
Description: screening of full-length IgG1 clones on recombinant OSMR extracellular domain.
Take B1: the binding result is reported as “binds”.

On to B2, for which the binding result is reported as “binds”.

B3: the binding result was “binds”.

With B4, the binding result was “binds”.

Turning to B5, the binding result was “binds”.

Consider B6, for which the binding result is “binds”.

With B7, the binding result is given as “binds”.

On to B8, for which the binding result was “binds”.

In the case of B9, the binding result is listed as “binds”.

B10: the binding result is “binds”.

For B11, the binding result is reported as “binds”.

In the case of B12, the binding result was “binds”.

As to B13, the binding result is reported as “binds”.

As to B14, the binding result is listed as “binds”.

For B15, the binding result is on record as “binds”.

As for B16, the binding result was “binds”.

In the case of B17, the binding result is given as “binds”.

For the molecule B18, the binding result was “binds”.

As for B19, the binding result is “binds”.

B20: the binding result is given as “binds”.

For the molecule B21, the binding result is on record as “binds”.

Turning to B22, the binding result is on record as “binds”.

Values taken from patent US20250197513A1 (University of Texas, published 2025).
